The results in this text go back to paper PMC10716051, “Cryo-EM reveals how Hsp90 and FKBP immunophilins co-regulate the glucocorticoid receptor” (Nature Structural & Molecular Biology, 2023).

The labels stand for the following.
B1: human FKBP52 (natural protein)
chain: MTAEEMKATESGAQSAPLPMEGVDISPKQDEGVLKVIKREGTGTEMPMIGDRVFVHYTGWLLDGTKFDSSLDRKDKFSFDLGKGEVIKAWDIAIATMKVGEVCHITCKPEYAYGSAGSPPKIPPNATLVFEVELFEFKGEDLTEEEDGGIIRRIQTRGEGYAKPNEGAIVEVALEGYYKDKLFDQRELRFEIGEGENLDLPYGLERAIQRMEKGEHSIVYLKPSYAFGSVGKEKFQIPPNAELKYELHLKSFEKAKESWEMNSEEKLEQSTIVKERGTVYFKEGKYKQALLQYKKIVSWLEYESSFSNEEAQKAQALRLASHLNLAMCHLKLQAFSAAIESCNKALELDSNNEKGLFRRGEAHLAVNDFELARADFQKVLQLYPNNKAAKTQLAVCQQRIRRQLAREKKLYANMFERLAEEENKAKAEASSGDHPTDTEMKEEQKSNTAGSQSQVETEA
notes: FKBP52 (gene FKBP4), human; The His6 tag is cleavable; source: bacterial expression plasmid pET151, purified
B2: human GR DBD-LBD (residues 418-777, F602S) (domain or fragment, UniProt P04150 418-777, looked up)
chain: PKLCLVCSDEASGCHYGVLTCGSCKVFFKRAVEGQHNYLCAGRNDCIIDKIRRKNCPACRYRKCLQAGMNLEARKTKKKIKGIQQATTGVSQETSENPGNKTIVPATLPQLTPTLVSLLEVIEPEVLYAGYDSSVPDSTWRIMTTLNMLGGRQVIAAVKWAKAIPGFRNLHLDDQMTLLQYSWMSLMAFALGWRSYRQSSANLLCFAPDLIINEQRMTLPCMYDQCKHMLYVSSELHRLQVSYEEYLCMKTLLLLSSVPKDGLKSQELFDEIRMTYIKELGKAIVKREGNSSQNWQRFYQLTKLLDSMHEVVENLLNYCFQTFLDKTMSIEFPEMLAEIITNQIPKYSNGNIKKLLFHQK
notes: glucocorticoid receptor, human; codon optimized; The His6-MBP tag is cleavable; the complex was pulled down on MBP-GR DBD-LBD; Only the LBD was visible in the maps; also called glucocorticoid receptor; MBP-GR DBD-LBD; source: E. coli BL21 star (DE3), purified (Ni-NTA, size exclusion); not shown: MBP, N-terminal, kept

Holding throughout (settings): both partners purified
One assay addresses T1, human Hsp90α (human, UniProt P07900 1-732).
T1 construct: Hsp90α, human; also called Hsp90A; Hsp90B (the two protomers of the dimer)
Nature of the assay: cryo-EM structure; GR chaperone cycle reconstituted in vitro from purified components (GR DBD-LBD, Hsp70, Hsp40, Hop, Hsp90, p23, Bag-1) with FKBP52; 20 mM sodium molybdate; pulldown on MBP-GR DBD-LBD, size exclusion, 0.02% glutaraldehyde crosslinking; datasets I and II. In general terms: In gel filtration, larger molecules generally elute earlier.

The assay “human FKBP52” has as its target B1. Described as above.
For the next assay, the target named is T2, human FKBP51 (human, UniProt Q13451 1-457).
T2 construct: FKBP51, human; The His6 tag is cleavable; source: bacterial expression plasmid pET151, purified
T2 sequence: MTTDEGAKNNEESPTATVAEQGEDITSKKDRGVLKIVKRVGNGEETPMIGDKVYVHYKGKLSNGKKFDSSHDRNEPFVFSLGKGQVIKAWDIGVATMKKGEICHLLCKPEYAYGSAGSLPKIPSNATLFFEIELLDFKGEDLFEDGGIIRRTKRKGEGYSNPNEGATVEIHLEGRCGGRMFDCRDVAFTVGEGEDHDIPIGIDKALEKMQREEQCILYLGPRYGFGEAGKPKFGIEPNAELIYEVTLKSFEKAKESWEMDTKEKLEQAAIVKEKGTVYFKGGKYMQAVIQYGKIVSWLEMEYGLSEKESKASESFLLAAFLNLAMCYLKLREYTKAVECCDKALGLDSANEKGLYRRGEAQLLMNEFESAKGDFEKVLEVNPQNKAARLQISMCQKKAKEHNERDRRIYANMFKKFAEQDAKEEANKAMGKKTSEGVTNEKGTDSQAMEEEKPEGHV
Nature of the assay: cryo-EM structure; GR chaperone cycle reconstituted in vitro from purified components (GR DBD-LBD, Hsp70, Hsp40, Hop, Hsp90, p23, Bag-1) with FKBP51; 20 mM sodium molybdate; pulldown on MBP-GR DBD-LBD, size exclusion, 0.02% glutaraldehyde crosslinking; datasets III and IV.

As to B1, the binding result in the assay with human Hsp90α is on record as “binds”.

Regarding B2, the binding result with human Hsp90α, in the assay with human FKBP52 and with human FKBP51 was “binds” each time.
